# Reference: the RNAGym collection of RNA variant scans (doi:10.1073/pnas.2313332121)
# B1: TPR t1 (parent)
# chain: GACCAAUCUGCCCUCAGAGCUCGAGAACAUCUUCGGAUGCAGAGGAGGCAGGCUUCGGUGGCGCGAUAGCGCCAACGUCCUCAACCUCCAAUGCAUCCCACCACAUGAUGAUGCCUGAAGAGCCUUGGUUUUUUG
# Variants of: B1
# Experiment: polymerase ribozyme fitness, log enrichment relative to wild type (log ratio); higher = more active; in vitro selection for triplet polymerase activity
# Method in brief: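 After PCR construction and transcription, each subunit's mutant library from a heterodimeric triplet polymerase ribozyme was annealed with a biotinylated primer, the partner subunit and triplets. Incubation was frozen, at −7 °C, and extended constructs were gel-excised, bound to streptavidin beads and amplified by RT-PCR, in one selection round done in triplicate. Fitness is the logarithm of a genotype's enrichment divided by that of the wild type, from inverse-variance-weighted replicate averages of Illumina-sequenced inputs and outputs. The base of the logarithm is 2, and genotypes needed ≥10 input reads and ≥1 read per output.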
row,Variant,polymerase ribozyme fitness (log ratio)
1,A6U C53A G63U A100U,-3.98
2,A6U C53G,-0.289
3,A6U C53G C82A A83G,-0.829
4,A6U C56G,-0.948
5,A6U C70A,-0.922
6,A6U C72U U96C G117U,-3.88
7,A6U C76U,-0.345
8,A6U C86U C89G,-1.63
9,A6U C94A U96G,-3.1
10,A6U C124U,1.56
11,A6U G10C C12U C49A G69C A90C A91U,-2.98
12,A6U G10U C13A C22A C49U G63A,-5.88
13,A6U G19C C82U C94A A111C,-4.5
14,A6U G19U A121U,-1.67
15,A6U G23A G69C C115A U126A U131G,-6.34
16,A6U G36A,-0.596
17,A6U G36C A37G A43G,-2.57
18,A6U G44A C56U,-0.291
19,A6U G45A G52A A75U,-0.0939
20,A6U G45U G52C C72U G122A,-2.56
21,A6U G47A C72G A75G,-2.41
22,A6U G48A A68G C123A,-2.21
23,A6U G52U C53G C70U G128C,-2.99
24,A6U G52U C53G G128C,-3.38

row,Variant,polymerase ribozyme fitness (log ratio)
1,A6U G57C G63A A90G,-0.878
2,A6U G58A A83U U106A,0.545
3,A6U G60A C82G C101U G120A G128U,-2.36
4,A6U G60C,0.0676
5,A6U G60U C64U A91G C102G G110U,-7.78
6,A6U G61C,-1.18
7,A6U G63U U78C C97U G120C,-3.08
8,A6U G69A C124A,-1.22
9,A6U G69U,0.777
10,A6U G93C,-0.28
11,A6U G110U,-1.36
12,A6U G113A,-1.07
13,A6U G113C,-2.6
14,A6U G135U,-0.769
15,A6U U7C A41G G110A,-1.88
16,A6U U7C C70A C76G,-2.57
17,A6U U9C G47A G69A,-2.93
18,A6U U14G,-1.38
19,A6U U30C,-2.71
20,A6U U30C G93U G120U,-3.6
21,A6U U55C C76U,-0.164
22,A6U U78G A83C,-0.41
23,U7A A27U G48U U87C G120U,-2.16
24,U7A A46G C70U A111C G113A,-3.8

row,Variant,polymerase ribozyme fitness (log ratio)
1,U7A A50U G57A A83U,-1.44
2,U7A A103C,-4.75
3,U7A A105U C115U,-3.4
4,U7A C8A A37G U59G C62U C88U G113C,-3.69
5,U7A C8A C13U C56U G61A C79U G120A,-4.91
6,U7A C8U G61U,0.322
7,U7A C8U G107C C124U,-4.43
8,U7A C11A C101U G122U,0.139
9,U7A C11A U14G G45U C53U C70A G113A G120U U133A,-4.43
10,U7A C12G C40G U106C C114G,-5.02
11,U7A C12U A43U C49A C114G,-1.69
12,U7A C12U G113C,-2.14
13,U7A C13G U32C U38G G63C,-2.61
14,U7A C13U A41U C82A G127A,-2.71
15,U7A C13U C15U G44U U59C G77U,-2.18
16,U7A C13U G71A C115U G128A,-2.21
17,U7A C15A A41C A66C,-4.5
18,U7A C15G C88U C124U,0.702
19,U7A C20U G120U,-0.3
20,U7A C34A G61U C97U,-2.06
21,U7A C40U G48U C53G C85A A119U,-0.816
22,U7A C49U G52U G61A G120A,0.469
23,U7A C53U U59G G60U C72G,-0.651
24,U7A C56A G65C G71A,-7.51

row,Variant,polymerase ribozyme fitness (log ratio)
1,U7A C56G C101U,0.801
2,U7A C62U U129A,-0.65
3,U7A C64U C89G A91U C97U C115U,-2.72
4,U7A C70U,-0.0171
5,U7A C70U G77U U92C G117C,-5.47
6,U7A C72A,-0.427
7,U7A C72G C88A C89G C102A G107A G113A,-6.44
8,U7A C73A C88G A111U U129G,-6.86
9,U7A C82A U116C C123A,-2.73
10,U7A C101A,-1.43
11,U7A G10C U21A C56U,-2.02
12,U7A G10U C64G G93A,-6.26
13,U7A G17U G52C C64U C123G,-1.52
14,U7A G17U G117A A118G,-2.58
15,U7A G25A G42U A50U G61A C85G A90C C123U U133G,-8.16
16,U7A G35A U78G,-4.41
17,U7A G36C G52A U55G,-0.803
18,U7A G39A G52A,0.0728
19,U7A G42A C86U,-1.98
20,U7A G47C C62U,-1.37
21,U7A G48C C85U G120C,-0.382
22,U7A G52U G60A G61C C62U,-6.92
23,U7A G57A,-0.474
24,U7A G60U U112A,1.29

row,Variant,polymerase ribozyme fitness (log ratio)
1,U7A G61C,-1.93
2,U7A G61C A91C C114A C115G,-7.29
3,U7A G69C A95G,-0.796
4,U7A U9C C12U G57C,0.0479
5,U7A U9C C15A A41U C56U U92G,-1.45
6,U7A U21A G61C C114G,-5.5
7,U7A U21C,0.0698
8,U7A U21C G71U A90G,-0.779
9,U7A U21G A75G,-1.8
10,U7A U21G G35A G52C C114U,-5.47
11,U7A U33A A100G G120C G135A,-3.75
12,U7A U38G C49A,-0.102
13,U7A U81G G122A,-5.92
14,U7A U92A G120A U133A,-0.782
15,U7A U106A,0.182
16,U7C A16G A29U G63U C97U U109A,-1.24
17,U7C A18C U78C C82U,-1.52
18,U7C A18U C53U G60U G61U,-4.77
19,U7C A27G U92A,-3.82
20,U7C A27U C79U,-3.22
21,U7C A37U A41C G47U C53G G65A C85G A95C A111G A118U,-7.71
22,U7C A66U U106C,-1.58
23,U7C A83G A84C,-1.08
24,U7C A91U C94G,-2.67

row,Variant,polymerase ribozyme fitness (log ratio)
1,U7C C8G,-0.253
2,U7C C8G C12U G19C G63A A66U C115A G128C,-4.6
3,U7C C8G C53G C101A,-0.517
4,U7C C8G C62U G93U A95C,-0.906
5,U7C C8U C20A G71A G93U,-5.59
6,U7C C11A G45C G58A A121C,0.57
7,U7C C11G A16G G52U U59G C72U,-0.58
8,U7C C12A C13A G17A A27C C115U,-5.21
9,U7C C13G C72A,-0.177
10,U7C C13U G60A A105U,-1.71
11,U7C C20A G39C G61A,-3.85
12,U7C C22A C82A C89U,-4.93
13,U7C C31A A119G U133A,-6.12
14,U7C C31U,-4.85
15,U7C C34A G44C A84U,-4.89
16,U7C C34U G61U C88A U116A,-5.7
17,U7C C49A G61U A83C U129C,-0.315
18,U7C C49U A50C G60U G127A,-0.326
19,U7C C53G C56A G60A A111G,0.682
20,U7C C62A C99G U112G U132C U134A G135U,-7.59
21,U7C C62A G110A A119C,-4.23
22,U7C C62U,-1.11
23,U7C C62U C99G U112G U132C U134A G135U,-6.65
24,U7C C70U,-1.31

row,Variant,polymerase ribozyme fitness (log ratio)
1,U7C C85G U87C,-1.57
2,U7C C97U C114A,-1.45
3,U7C G10A C11G G93U,-1.34
4,U7C G39A,-0.619
5,U7C G42C C88U C115U U133A,-0.576
6,U7C G42C U87A,-1.73
7,U7C G42U G60C G120A C124G G128A,-3.07
8,U7C G42U G69C,-2.97
9,U7C G45U G110C,-5.16
10,U7C G57A,-0.108
11,U7C G57U,0.0649
12,U7C G61U,0.179
13,U7C G69A,-2.74
14,U7C G69C A90G G113C,-3.11
15,U7C G93A,-1.65
16,U7C G135C,-0.63
17,U7C U9G A26G C72A,-1.08
18,U7C U14C A29G G71C G113U,-4.94
19,U7C U21C A83G G120A,0.428
20,U7C U21G U96G,-1.67
21,U7C U87C U92G G122A C123U,-1.22
22,U7C U96C C102A A108U C114U,-5.22
23,U7G A16C,-1.37
